Test results reported in the supplement of paper PMC12764529.
± gives the half width of the 95% confidence interval.

Key:
[1] = folding stability dG unfold from trypsin proteolysis; higher = more stable
In short: (§1)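 Mini-proteins designed to be under 80 residues and free of cysteine were carried in a PA-tagged cDNA display construct and digested with trypsin and with chymotrypsin. Each protease was applied at 11 threefold-diluted concentrations, alongside a no-protease condition, before sequencing. K50 came from Bayesian fitting of the sequencing counts, and unfolding free energy was obtained by comparing it with a sequence-predicted unfolded-state K50 and a shared folded-state K50, for each protease separately or for both together. Designs were retained only if their AlphaFold2 dimer inter-PAE exceeded 15.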

[2] = folding stability dG unfold from chymotrypsin proteolysis; higher = more stable
In short: as §1

[3] = folding stability dG unfold (combined trypsin and chymotrypsin); higher = more stable
In short: as §1

Row | Sequence | folding stability dG unfold [1] | folding stability dG unfold [2] | folding stability dG unfold [3]
1 | SWKIKISIERTGDWITVKIWYDNPSELRNAIEMIAEKLGMKVEIDDVSWKRDPNGWYEATITVRIKPGMPSA [r9_102_TrROS] | 3.27 ± 0.18 kcal/mol | 3.31 ± 0.077 kcal/mol | 3.42 ± 0.16 kcal/mol
2 | SAGGMTITIPPSVPDADVERIVEEAEATFPQPVTLTRDPGRGRWTLTFDGPEDERREAIEALAARLASAGGS [r16_227_JUSTAS] | 0.0735 ± 0.14 kcal/mol | 0.565 ± 0.19 kcal/mol | 0.434 ± 0.12 kcal/mol
3 | SAGGSAGGSAGMVFLDPETRLLLVVHPNGEPELVLLEDGRAVLFHPSTGERREIPLAEIGSAGGSAGGSAGG [r11_297_TrMRF] | -0.195 ± 0.13 kcal/mol | 0.318 ± 0.12 kcal/mol | 0.263 ± 0.12 kcal/mol
4 | SAGGSAKATLPEGVKIETKTFKLDGRKYMPFVFEAPDDDWVWVNEMRMDPNGKMEMETIWIPPDAVSAGGSA [r15_986_TrROS] | 0.368 ± 0.32 kcal/mol | 0.384 ± 0.44 kcal/mol | 0.375 ± 0.23 kcal/mol
5 | SAGGSAGGSAGGGITIKGPGSVTVTVPASDVASISVDPATGTVTVEIPATGTTLTVPPASAGGSAGGSAGGS [r10_200_JUSTAS] | 1.03 ± 0.037 kcal/mol | 0.238 ± 0.033 kcal/mol | 0.604 ± 0.07 kcal/mol
6 | SAGGSAGGSAGAANDPKKIPIHIFPPDGKPIFKVKIEVYDNGIKIKIEWHPSPDGLYPMISAGGSAGGSAGG [r11_874_TrROS] | 1.9 ± 0.089 kcal/mol | 1.98 ± 0.082 kcal/mol | 1.99 ± 0.14 kcal/mol
7 | SAGGSAGGSAGTAEEIAKALEEAGFKVEKLPDGTLKVTVRNPETEETVEITLTLEEIEKLSAGGSAGGSAGG [r11_994_TrROS_Hall] | 2.38 ± 0.084 kcal/mol | 2.22 ± 0.051 kcal/mol | 2.33 ± 0.1 kcal/mol
8 | SAGGSAGGSASVEEIADKIQQLHGVDVEVTEPQPNSNGYPRWRIKVDLKGLPEKWMQELLNSAGGSAGGSAG [r3_40_TrROS] | 0.681 ± 0.17 kcal/mol | 0.217 ± 0.19 kcal/mol | 0.372 ± 0.11 kcal/mol
9 | SAGGSAGGSAGGKEYKLVKVKVKVEITLPKGSELLKKLGLSEEDVKFEFELEVVVLVKPSAGGSAGGSAGGS [r10_82_TrROS_Hall] | 2.82 ± 0.21 kcal/mol | 3.93 ± 0.074 kcal/mol | 3.68 ± 0.23 kcal/mol
10 | SAGGSAGGSAGMVVVERTSAPDPDKPTSYWFYTKTTFFPDGSVLSETKKFPSPAELEKATSAGGSAGGSAGG [r11_792_JUSTAS] | 0.793 ± 0.023 kcal/mol | 1.07 ± 0.12 kcal/mol | 0.992 ± 0.07 kcal/mol
11 | SAGSYSVTADVTVHPDGTVDVTLTITTNGEDGTTETSTVLPLTLDLPPGTAVTVTVDPNNGTVTVTVEASAG [r5_179_JUSTAS] | 3.01 ± 0.14 kcal/mol | 4.14 ± 0.058 kcal/mol | 3.89 ± 0.079 kcal/mol
12 | SAGGSDSLVTLERVEVTELEEFEEDDRPFLVKRTYTIEKVVTTDPKTGKVTTETTVTSKEEVIPPELNSAGG [r13_810_JUSTAS] | 0.807 ± 0.031 kcal/mol | 0.801 ± 0.18 kcal/mol | 0.874 ± 0.084 kcal/mol
13 | SAGGSAGGSSSATLAADETATLRFRVTLTFGSGVRSGTADLSGSVSATVEVDVEIEVRNLADDSAGGSAGGS [r12_668_TrMRF] | 3.32 ± 0.056 kcal/mol | 4.62 ± 0.082 kcal/mol | 4.24 ± 0.07 kcal/mol
14 | SAGGSAGGSNNPDKKKKPRYVVIQIELKWYPNPNGQWSPELEITATVPAGDLEDKDDAIKDIISAGGSAGGS [r12_933_TrROS] | 2.13 ± 0.098 kcal/mol | 1.29 ± 0.064 kcal/mol | 1.68 ± 0.17 kcal/mol
15 | SAGGSAGGSASSSPVTVETKTLEVEFKDDEIIVKEKVTTKYPNGKTTVTVTTTTIKVDPNLDSAGGSAGGSA [r18_291_JUSTAS] | 1.21 ± 0.1 kcal/mol | 1.55 ± 0.1 kcal/mol | 1.34 ± 0.12 kcal/mol
16 | SAGGSAGGSAGKPTLKLVLKFDSPEQAKAAAEALAKAGYKVKVELKEYPDGLYLVVTVEPSAGGSAGGSAGG [r11_677_TrROS_Hall] | 3.29 ± 0.12 kcal/mol | 4.41 ± 0.13 kcal/mol | 4.2 ± 0.2 kcal/mol
17 | SAPNYVLVIKIKSTNTPYYIPVPEDVEIVVKKNKNGEITAVVKVKDPETGEYFVITFSGDAKIDKIEPVPSA [r9_467_TrMRF] | 2.21 ± 0.1 kcal/mol | 2.93 ± 0.082 kcal/mol | 2.63 ± 0.19 kcal/mol
18 | SAGGSAGGSAWKKFMLEFPDGRPFMIEIDPDEPGRVKIYPPGNGKEEEIPPDDLKDLKITASAGGSAGGSAG [r3_451_TrROS] | -0.0506 ± 0.36 kcal/mol | 0.718 ± 0.27 kcal/mol | 0.507 ± 0.33 kcal/mol
19 | SAGGSAMIVTEDPNGVLTTTENGKVTTTTVTPVPRPDPFSDKTFTEYVVTTTTTPVAPSPITPNTLSAGGSA [r15_515_JUSTAS] | 1.26 ± 0.032 kcal/mol | -0.0422 ± 0.081 kcal/mol | 0.823 ± 0.046 kcal/mol
20 | SAGGMILEIEFPPELIEELLEKLKKEFPDVEVKPLKIEYDPETGLVKVPILVKTKNPEEVEKIKKLAASAGG [r13_539_TrMRF] | 2.91 ± 0.15 kcal/mol | 2.78 ± 0.091 kcal/mol | 2.83 ± 0.11 kcal/mol
21 | SAGGSAGGSAGGKMYLIKVKVDGEEKLIKVKSLEEAKKLLEEKGYKIESVEIFEVEEEEESAGGSAGGSAGG [r7_726_TrROS_Hall] | 4.14 ± 0.23 kcal/mol | 4.07 ± 0.059 kcal/mol | 4.09 ± 0.073 kcal/mol

Row | Sequence | folding stability dG unfold [1] | folding stability dG unfold [2] | folding stability dG unfold [3]
22 | SAGGSAGGSMRVRFLVTEPGLGPETAALRVERRLLEEYPVRVKGVRVRTRPDGGYLVVVEVEPSAGGSAGGS [r12_781_TrMRF] | 0.673 ± 0.076 kcal/mol | 1.03 ± 0.1 kcal/mol | 0.94 ± 0.088 kcal/mol
23 | SAGGSAMPLLIVDKNNNVTLISASSPEELEELLKKYNIKKIEPFPFPDGKALVFIAEYPDGIIYSGSAGGSA [r15_632_TrMRF] | 1.3 ± 0.02 kcal/mol | 1.65 ± 0.047 kcal/mol | 1.52 ± 0.049 kcal/mol
24 | SAGPVLYRVTITVEVSSSGEKGKTLTLEFLVPPSVSGEEVRDRVLALLKAQGYKVEKITVTVTPLPSSASAG [r14_979_JUSTAS] | 4.03 ± 0.21 kcal/mol | 5.36 ± 0.13 kcal/mol | 5.27 ± 0.14 kcal/mol
25 | SAGGMEIVSSGSLEEAIALLKENPNTTITVTLPDGTTVVIKVTQNGEGPYIYDVSTEPPAAAPSPSLVSAGG [r13_56_JUSTAS] | 2.15 ± 0.096 kcal/mol | 1.1 ± 0.038 kcal/mol | 1.66 ± 0.079 kcal/mol
26 | MTVTVPPDGTVTITLTDPSGNTYTFTIPVTDPAELRARLEEAIRELFPEFEDIPVRVVAVDGPAVVVEVPLS [r1_389_JUSTAS] | 3.02 ± 0.12 kcal/mol | 3.12 ± 0.036 kcal/mol | 3.1 ± 0.086 kcal/mol
27 | SASLPPGQVRSLPVDVTIETPEGQPRFTEPATLEPPPRLVVDVALPLPPGEVTITIRLPGPGVTLTIERSAG [r14_280_JUSTAS] | 0.562 ± 0.089 kcal/mol | 1.53 ± 0.16 kcal/mol | 1.42 ± 0.37 kcal/mol
28 | SAGGSMTISYDPSTGTVTITDPTVPLNTPRSITITFPGGETFTATLTPLPDNSATATYTVVPTAGASAGGSA [r2_89_JUSTAS] | 1.26 ± 0.036 kcal/mol | 1.09 ± 0.1 kcal/mol | 1.23 ± 0.16 kcal/mol
29 | SAGGSAGGSVLVIDSPEQIKKAIKEFKDNGAKSIHIRGPGRYWVIQIDPKEPKVKVERVPLGQSAGGSAGGS [r12_368_TrROS] | 0.639 ± 0.096 kcal/mol | 0.674 ± 0.17 kcal/mol | 0.643 ± 0.16 kcal/mol
30 | MRLYLVKVEIRREEVDPETGEVREEKLELTVLVREEDEEALEKAEELARKLAEEEGIKEVKVEVVELPAEES [r1_346_TrROS_Hall] | 2.3 ± 0.09 kcal/mol | 2.62 ± 0.079 kcal/mol | 2.47 ± 0.25 kcal/mol
31 | SMKKIVLIYPESVSPEEAEKIAEEILKKLGLKKGSPVTILPLSEYESNPEMRARIEEAKKKGADIIIEVKSA [r9_1147_JUSTAS] | 2.91 ± 0.15 kcal/mol | 2.8 ± 0.1 kcal/mol | 2.78 ± 0.17 kcal/mol
32 | SAGGEFEVEELPPGGLLLVTFRAPADLPLEIPLEFTSPDGSPVEVAEYEREPFGDYVLITVLVRVPDSAGGS [r16_499_TrMRF] | 2.25 ± 0.16 kcal/mol | 2.77 ± 0.16 kcal/mol | 2.73 ± 0.18 kcal/mol
33 | SAGGSAMSVTLTFEEPVGPGVPVKVTVTVERFPDSVKVTVTTTFPDGTVTTTPVSLKLEPAAVDLLSAGGSA [r15_263_JUSTAS] | 2.44 ± 0.11 kcal/mol | 2.694 ± 0.022 kcal/mol | 2.54 ± 0.082 kcal/mol
34 | SAGMPEIVKVKVKIKVNIPVFDKNGKLIGLIPKEYEFEIEAPYEEIKNIIESLPENAEVVEILEIENESAGG [r19_114_TrMRF] | 4.27 ± 0.68 kcal/mol | 2.29 ± 0.29 kcal/mol | 3.29 ± 0.89 kcal/mol
35 | SAGGSAGGSAMTITVEVPPSVPAEEAAERVAERLRAEFPVPDIRVTVETTPDGTVTVTITEASAGGSAGGSA [r18_1_JUSTAS] | -0.291 ± 0.16 kcal/mol | 0.436 ± 0.09 kcal/mol | 0.275 ± 0.1 kcal/mol
36 | SGSLSIEFSSTEPSSPGSITLSKLFPEPEADRATHTIKLPNSTIELEFDSAEDLIKNVEKLLKELGNPGKSA [r9_258_JUSTAS] | 0.297 ± 0.058 kcal/mol | -0.0786 ± 0.18 kcal/mol | 0.115 ± 0.12 kcal/mol
37 | SAMPLEDMTPEQAEEFAKEFINRFQQENQKKGGPIPPGQEIEIPVRYKGGPVYIKITVTNPGNINIEVESAG [r14_501_TrROS] | 0.448 ± 0.048 kcal/mol | 0.708 ± 0.095 kcal/mol | 0.663 ± 0.13 kcal/mol
38 | SAGGSAGGSAGKKTYKLVIPVKPDKTVEEIAEEVKKLLGPGSKVEVEEKEDGFATVYVESSAGGSAGGSAGG [r17_20_TrMRF] | 0.292 ± 0.04 kcal/mol | 0.656 ± 0.093 kcal/mol | 0.555 ± 0.097 kcal/mol
39 | SAGGSAGPPKPGKIELEFEDPSGGKKYKVDIYIYPNNEVKTKALNPDGTPIPEEEIKKILKKLGLKSAGGSA [r15_872_JUSTAS] | 0.37 ± 0.082 kcal/mol | 1.75 ± 0.12 kcal/mol | 1.29 ± 0.26 kcal/mol
40 | SAGKKVTILIVVPETEEEAKKLAEELAKELAEKTGLEKVEVKVVPKGMTLEQLKELAKENNVDLVILVSAGG [r19_89_TrROS_Hall] | 3.24 ± 0.21 kcal/mol | 3.09 ± 0.15 kcal/mol | 3.17 ± 0.24 kcal/mol
41 | SAGGSAGGSAAKIELEDGTLRITLTRTVRDPATGETHTETLTLEIKLPPAPPPVVVVSPEDLSAGGSAGGSA [r18_501_TrROS_Hall] | 2.32 ± 0.072 kcal/mol | 3.24 ± 0.037 kcal/mol | 2.88 ± 0.092 kcal/mol
42 | SAGGSAGGSAGPNIYVSIKWKHNNGPVTHQIPIPPNDPPEILDEMSKQPGFKVTDIEVMPSAGGSAGGSAGG [r11_692_TrROS] | -0.836 ± 0.35 kcal/mol | -0.0146 ± 0.3 kcal/mol | -0.213 ± 0.25 kcal/mol
